Data from US20230212319A1, “NOVEL ANTIGEN BINDING DOMAINS AND SYNTHETIC ANTIGEN RECEPTORS INCORPORATING THE SAME” (University of Southern California, priority 2020, published 2023).

B1: SEQ ID NO: 22099: FHVH attached to TCRa-wt2-opt-6MD via IgCL linker and second FHVH attached to TCRb-wt2-opt-6MD via IgG1-CH1 linker (protein)
chain: MALPVTALLLPLALLLHAARPQVQLVESGGGLVQPGGSLRLSCAASGFTFTNHAMSWVRQAPGKGLELVSSISGNGRTTYYADSVKGRFTISRDISKNTLDLQMNSLRAEDTAVYYCAKDGGETLVDSRGQGTLVTVSSLEGQPKANPTVTLFPPSSEELQANKATLVCLISDFYPGAVTVAWKADGSPVKAGVETTKPSKQSNNKYAASSYLSLTPEQWKSHRSYSCQVTHEGSTVEKTVAPTECSGRADCGFTSESYQQGVLSATILYEILLGKATLYAVLVSALVLMAMVKRKDSRGRAKRSGSGATNFSLLKQAGDVEENPGPTSMDWIWRILFLVGAATGAHSFEEVQLLESGGGLVQPGGSLRLSCAASGFTFSSYAMSWVRQAPGKGLEWVSSISGSGDYIYYADSVKGRFTISRDISKNTLYLQMNSLRAEDTAVYYCAKEGTGANSSLADYRGQGTLVTVSSTRASTKGPSVFPLAPSSKSTSGGTAALGCLVKDYFPEPVTVSWNSGALTSGVHTFPAVLQSSGLYSLSSVVTVPSSSLGTQTYICNVNHKPSNTKVDKRVEPKSCIPEDTFFPSPESSCDVKLVEKSFETDTNLNFQNLSVIGFRILLLKVAGFNLLMTLRLWSSRAKRSGSGVKQTLNFDLLKLAGDVESNPGPSRGHMTEYKPTVRLATRDDVPRAVRTLAAAFADYPATRHTVDPDRHIERVTELQELFLTRVGLDIGKVWVADDGAAVAVWTTPESVEAGAVFAEIGPRMAELSGSRLAAQQQMEGLLAPHRPKEPAWFLATVGVSPDHQGKGLGSAVVLPGVEAAERAGVPAFLETSAPRNLPFYERLGFTVTADVEVPEGPRTWCMTRKPGA
B2: 22195 (protein)
chain: MALPVTALLLPLALLLHAARPDIQMTQSPSSLSASVGDRVTITCKASDHINNWLAWYQQKPGQAPKLLIYGATTLETGVPSRFSGSGSGTDYTLTISSLQPEDFATYYCQQSWNTPWTFGQGTKLEIKRLEDLKNVFPPEVAVFEPSEAEISHTQKATLVCLATGFYPDHVELSWWVNGKEVHSGVCTDPQPLKEQPALNDSRYCLSSRLRVSATFWQNPRNHFRCQVQFYGLSENDEWTQDRAKPVTQIVSAEAWGRADCGFTSESYQQGVLSATILYEILLGKATLYAVLVSALVLMAMVKRKDSRGRAKRSGSGATNFSLLKQAGDVEENPGPTSATMDWIWRILFLVGAATGAHSGPGSDLGIKLLFAAAKGQDDEVRILLAAGADVNAKDFEGYTPLHVAAYDGHLEIVEVLLKAGADVNAKDSQGRTPLHEAAYSGHLEIVEVLLKAGADVNAQDDAGETPADLAAAWGHEDIAEVLQKGSGGGGSGGGGSGGGGSFEQVQLQQPGAELVKPGASVKMSCKASGYAFSSYWINWMKQKPGQGLEWIGQIYPGDGDTNYNGKFKGRATLTADTSSSTAYMQLSSLTSEDSAVYFCARSITTVVGCAMDYWGQGTSVTVSSTRIQNPDPAVYQLRDSKSSDKSVCLFTDFDSQTNVSQSKDSDVYITDKCVLDMRSMDFKSNSAVAWSNKSDFACANAFNNSIIPEDTFFPSPESSCDVKLVEKSFETDTNLNFQNLSVIGFRILLLKVAGFNLLMTLRLWSSRAKRSGSGVKQTLNFDLLKLAGDVESNPGPSRGHMTEYKPTVRLATRDDVPRAVRTLAAAFADYPATRHTVDPDRHIERVTELQELFLTRVGLDIGKVWVADDGAAVAVWTTPESVEAGAVFAEIGPRMAELSGSRLAAQQQMEGLLAPHRPKEPAWFLATVGVSPDHQGKGLGSAVVLPGVEAAERAGVPAFLETSAPRNLPFYERLGFTVTADVEVPEGPRTWCMTRKPGA
B3: 22197 (protein)
chain: B2 chain
B4: CD8SP-BCMA-FHVH-93-G4S-CD19-MOR0028-scFv-hCD8TM-BBZ-T2A-PAC (protein)
chain: MALPVTALLLPLALLLHAARPACEVQLLESGGGLIQPGGSLRLSCAASGFTFSSHAMTWVRQAPGKGLEWVSAISGSGDYTHYADSVKGRFTISRDNSKNTVYLQMNSLRAEDSAVYYCAKDEDGGSLLGHRGQGTLVTVSSGTGGGGSGGGGSGGGGSEFINIYNAEPANPSEKNSPEFDIVMTQSPATLSLSPGERATLSCRSSKSLQNVNGNTYLYWFQQKPGQSPQLLIYRMSNLNSGVPDRFSGSGSGTEFTLTISSLEPEDFAVYYCMQHLEYPITFGAGTKLEIKGGGGSGGGGSGGGGSEVQLVESGGGLVKPGGSLKLSCAASGYTFTSYVMHWVRQAPGKGLEWIGYINPYNDGTKYNEKFQGRVTISSDKSISTAYMELSSLRSEDTAMYYCARGTYYYGTRVFDYWGQGTLVTVSSTRTTTPAPRPPTPAPTIASQPLSLRPEACRPAAGGAVHTRGLDFACDIYIWAPLAGTCGVLLLSLVITLYCKRGRKKLLYIFKQPFMRPVQTTQEEDGCSCRFPEEEEGGCELRVKFSRSADAPAYQQGQNQLYNELNLGRREEYDVLDKRRGRDPEMGGKPRRKNPQEGLYNELQKDKMAEAYSEIGMKGERRRGKGHDGLYQGLSTATKDTYDALHMQALPPRSSGSGEGRGSLLTCGDVEENPGPHMTEYKPTVRLATRDDVPRAVRTLAAAFADYPATRHTVDPDRHIERVTELQELFLTRVGLDIGKVWVADDGAAVAVWTTPESVEAGAVFAEIGPRMAELSGSRLAAQQQMEGLLAPHRPKEPAWFLATVGVSPDHQGKGLGSAVVLPGVEAAERAGVPAFLETSAPRNLPFYERLGFTVTADVEVPEGPRTWCMTRKPGA

Assays:
Type in all cases: cell-based
[1] = system: target antigen-expressing cell line; experiment: Jurkat NFAT-GFP (JNG) assay: induction of NFAT promoter driven GFP expression; conditions: SAR-expressing JNG cells co-cultured with cell lines expressing their target antigen(s)
Description: Induction ofNFAT promoter driven GFP expression. […] Cellular supernatant is collected and assayed for the induction of cytokines (e.g., IL2).
(§1) Cellular supernatant is collected and assayed for the induction of cytokines (e.g., IL2).
(§2) JNG (Jurkat cells expressing EGFP under an NFAT promoter) were infected with lentiviral vectors encoding different single chain and multi-chain SARs by spinfection in the presence of 8 µg/ml of Polybrene® (Sigma, Catalog no. H9268). The Jurkat-NFAT-GFP cells are engineered in such a way that the IL-2 promoter, which carries NFAT binding sites, is cloned upstream of the GFP gene. These cells have been used to study signaling via TCR and CAR. The different SARs were stably expressed in Jurkat NFAT-GFP cells by lentiviral mediated gene transfer, followed by selection with puromycin or blasticidin. No drug selection was used in case the construct lacked an antibiotic resistance gene. The SAR-expressing Jurkat-NFAT-GFP cells were cocultured with the target cells at E:T ratio of approximately 1:2 for approximately 4 hours to 18 hours. When the interaction between SIRs and their target antigen results in activation of the NFAT pathway, GFP expression is induced. […] GFP expression was monitored by FACS analysis. The Jurkat-NFAT-GFP (parental) cells were used as control. The structure of different constructs can be determined based on their names. […] The sequence of the other constructs in the table can be similarly determined from their names and by referring to the different Tables of this disclosure that provide the names and SEQ ID NO of the different modules. Alternatively, the composition and modular architecture of the different SAR constructs can be determined from their sequences by bioinformatics tools, including using nucleic acid and amino acids homology searches. A SAR is considered positive in the assay in case the SAR expressing Jurkat-NFAT-GFP cells show greater % GFP positive cells when cultured with the target cell line as compared to parental Jurkat-NFAT-GFP cells. […] In general, the number +/-, +, 2+, 3+, 4+, 5+ refer to approximately 5%, 10%, 20%, 30%, 40% and 50% GFP positive cells. The % of GFP induction in the above assay is dependent not only the relative strength of the SAR but also, among other factors, on the relative level of expression of the SAR in the JNG cells and the relative level of expression of the target antigen in the target cell line. To control for the difference in gene transduction efficiency of the different SAR constructs, the experiment was conducted with JNG cells transduced with SAR constructs co-expressing a drug resistance gene (e.g., puromycin or PAC) followed by drug selection to generate a stable population of SAR-expressing cells. It is to be noted that the drug resistance gene (e.g., PAC) in the SAR constructs is optional and in vivo studies were conducted with SAR constructs lacking the PAC gene.

RAJI cells = experiment: JNG assay, co-culture with RAJI cells; conditions: for NFAT-GFP ASSAY: Raji: JNG cells expressing construct, co-culture with Raji
In short: (§3)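 Jurkat-NFAT-GFP (JNG) cells stably expressing SAR constructs via lentiviral transduction and puromycin/blasticidin selection were cocultured with target cells at E:T ~1:2 for ~4–18 h. NFAT-driven GFP was measured by FACS versus parental JNG cells; scores +/- to 5+ denote ~5–50% GFP-positive cells.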

SKOV-3 cells = experiment: JNG assay, co-culture with SKOV-3 cells; conditions: co-culture with SKOV-3
Description: as §1, §2

RAJI-CD19-KO cells = experiment: JNG assay, co-culture with RAJI-CD19-KO cells; conditions: co-culture with RAJI-CD19-KO cells
In short: as §3

Row | Molecule | GFP induction / activity in JNG assay [1] | NFAT-GFP ASSAY: Raji (RAJI cells) | NFAT-GFP ASSAY: SKOV-3 (SKOV-3 cells) | GFP induction / activity (RAJI cells; co-culture with RAJI cells) | GFP induction / activity (RAJI-CD19-KO cells)
1 | B1 | good activity |  |  |  | 
2 | B2 |  | 4+ (refer to approximately 5%, 10%, 20%, 30%, 40% and 50% GFP positive cells) | 4+ (refer to approximately 5%, 10%, 20%, 30%, 40% and 50% GFP positive cells) |  | 
3 | B3 |  | 2+ (refer to approximately 5%, 10%, 20%, 30%, 40% and 50% GFP positive cells) | 5+ (refer to approximately 5%, 10%, 20%, 30%, 40% and 50% GFP positive cells) |  | 
4 | B4 | effective GFP induction |  |  | effective GFP induction | effective GFP induction
